Paper PMC3486956

Molecular target: aggregated glucose-6-phosphate dehydrogenase (G6PDH) from Leuconostoc mesenteroides (Leuconostoc mesenteroides) (UniProt P11411)
Experiment: retention with aggregates on a 0.1-μm filter, SDS-PAGE

UniProt P11411, sequence (P11411 whole entry): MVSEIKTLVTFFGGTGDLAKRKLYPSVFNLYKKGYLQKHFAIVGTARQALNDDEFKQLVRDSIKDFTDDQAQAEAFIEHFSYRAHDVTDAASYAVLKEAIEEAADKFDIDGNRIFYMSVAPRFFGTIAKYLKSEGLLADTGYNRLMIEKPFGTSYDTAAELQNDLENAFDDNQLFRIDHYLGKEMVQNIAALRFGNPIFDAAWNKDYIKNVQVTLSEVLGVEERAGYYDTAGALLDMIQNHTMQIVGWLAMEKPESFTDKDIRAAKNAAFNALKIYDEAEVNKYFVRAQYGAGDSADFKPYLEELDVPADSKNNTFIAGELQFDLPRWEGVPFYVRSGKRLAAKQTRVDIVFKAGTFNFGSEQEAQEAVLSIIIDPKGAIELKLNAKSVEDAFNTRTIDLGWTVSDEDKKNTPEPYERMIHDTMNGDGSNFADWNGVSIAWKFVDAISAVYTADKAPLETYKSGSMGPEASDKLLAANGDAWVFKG

| decrease of the amount bound compared to wt ClpB | Substance |
| --- | --- |
| 50% | ClpB 2P (GG motif converted into PP) (from UniProt P63284 1-857) (natural protein) |
| 50% | ClpB 4G (four Gly inserted in the N-terminal linker) (from UniProt P63284 1-857) (natural protein) |
